Results on two molecules are retold here after publication PMC9302846, “Three enigmatic BioH isoenzymes are programmed in the early stage of mycobacterial biotin synthesis, an attractive anti-TB drug target” (PLoS Pathogens, 2022).

Data set [1] has as its target Seleno-methionine (Se-Met) substituted BioH3 protein (Mycobacterium smegmatis MC2 155) (UniProt A0R6Y0). The data set is described as follows: crystal structure; Se-substituted BioH3, sitting-drop vapor diffusion at 16°C; 20 mM citric acid, 80 mM Bis-Tris propane pH 8.8, 16% PEG3350; SAD; space group P2(1), six molecules per asymmetric unit.
Data set [2] deals with the molecule itself. The data set is described as follows: SEC; Superdex 200 Increase column; protein dialyzed in 20 mM Tris-HCl (pH 8.0), 150 mM NaCl and concentrated to ~15 mg/ml. On the technique in general: In gel filtration, larger molecules generally elute earlier.

In the case of “Seleno-methionine (Se-Met) substituted BioH3 protein (from UniProt A0R6Y0 1-282) (enzyme)”, the stoichiometry N – broadly, the number of molecules, sites or subunits per partner or assembly – in data set [1] amounted to 2.

B1: BioH2 (MSMEG_1352) of M. smegmatis MC2 155, hexa-histidine-tagged (enzyme, Mycobacterium smegmatis MC2 155, UniProt A0QS51 1-305, looked up)
chain: MQTRTGLARAGDADHPIDLFYEDMGDPGDPAVLLIMGLGAQMLMWRTEFCEKLVDQGLRVIRFDNRDVGLSTKLSGQRVDSPLALRMARSFLGKRSPAVYTLEDMADDAAALLDHLEIDRAHIVGGSMGGMIAQVFASQHAARTETLGVIFSSNNQALLPPPGIRQLLSLITGPPADASRDAVLDNAVRLSRLNGSPAYPRSEEEIRAEAAELYDRAYYPAGIARHFAAILGSGSLRHHNERVTAPTVVIHGRADRLMPPSGGRAIANAIRGARMVLIDGMGHELPEPVWDEVIGELKTNFAVVG
notes: BioH2, product of MSMEG_1352 of Mycobacterium smegmatis MC2 155; source: E. coli BL21(DE3), pET28a, purified (nickel column, dialysis)
On to B1, for which the binding result in data set [2] is reported as “binds”.
